Data published in paper doi:10.1101/764241v3.

Substrate: O=c1ccn([C@@H]2O[C@H](COP(=O)(O)OP(=O)(O)O[C@H]3O[C@H](CO)[C@H](O)[C@H](O)[C@H]3O)[C@@H](O)[C@H]2O)c(=O)[nH]1
Assay: [3H]Gal transfer, Sep-Pak C18 scintillation counting
Type: biochemical, Globisporangium ultimum
Settings: donor, maltose-pNP acceptor, 2 mM MnCl2, pH 7.0, 37°C

B1: PuGat1 (Globisporangium ultimum DAOM BR144) (protein)
chain: MTVGTRRAAYATLITSDAYVMGVEALVYSLFKARVAFPLVVLHSSQVTQPTVAKLTRFCAPFQSSTWRISFRSVPDIGIPDEVTDRSTVHVPGWVNSGYTKLHIFAMDDFEQIVYIDADAIVLQNVDELFDRSTSFAAAPDVFPPDRFNAGVLVIRPNKQLFADLLAKAKELKSYDGGDTGFLNAFFPKWFESDAASRLPFGYNAQRTMYWLVNGKNPGYWNAVQPLKILHYSSNPKPWEDPSRKGDLEILWWQMYTESRCMSFLG
Km: 15 µM
